# Where a chain is given by its changes, count along the chain named. Ends that are not written are not given here.
# B1: CNP-14AAlinker-D6 [C4] (peptide)
# peptide: GLSKGCFGLKLDRIGSMSGLGCGGGGSGGGGSGGGGDDDDDD
# B2: C4(E6) [BC4] (peptide)
# peptide: EEEEEESGGGGSGGGKGANKKGLSKGCFGLKLDRIGSMSGLGC
# B3: C5(E6) [BC5] (peptide)
# peptide: B2 peptide with K16Q, K20Q, K21Q
# B4: C11(E6) [BC11] (peptide)
# peptide: B2 peptide with K16Q, K21Q
# B5: C9(E6) [BC9] (peptide)
# peptide: B2 peptide with K20Q, K21Q
# B6: C7(E6) [BC7] (peptide)
# peptide: B2 peptide with K20Q
# B7: C10(E6) [BC10] (peptide)
# peptide: B2 peptide with K16Q, K20Q
# B8: C8(E6) [BC8] (peptide)
# peptide: B2 peptide with K16Q
# B9: C6(E6) [BC6] (peptide)
# peptide: B2 peptide with K21Q
# B10: CDNP-S3A4A5 (peptide)
# peptide: GLSKGCFGLKLDRIGSMSGLGCPSSAAPRPNAPSTSA
# modifications: ends and bridges not checked; cysteine pairing not given here
# B11: CDNP-S3A4 (peptide)
# peptide: B10 peptide with A27D
# modifications: ends and bridges not checked; cysteine pairing not given here
# Target: purified neutral endopeptidase (NEP) (UniProt P08473)
# Experiment: cell-based or functional assay
# Sequence of purified neutral endopeptidase (NEP) (P08473 52-750 limits assumed): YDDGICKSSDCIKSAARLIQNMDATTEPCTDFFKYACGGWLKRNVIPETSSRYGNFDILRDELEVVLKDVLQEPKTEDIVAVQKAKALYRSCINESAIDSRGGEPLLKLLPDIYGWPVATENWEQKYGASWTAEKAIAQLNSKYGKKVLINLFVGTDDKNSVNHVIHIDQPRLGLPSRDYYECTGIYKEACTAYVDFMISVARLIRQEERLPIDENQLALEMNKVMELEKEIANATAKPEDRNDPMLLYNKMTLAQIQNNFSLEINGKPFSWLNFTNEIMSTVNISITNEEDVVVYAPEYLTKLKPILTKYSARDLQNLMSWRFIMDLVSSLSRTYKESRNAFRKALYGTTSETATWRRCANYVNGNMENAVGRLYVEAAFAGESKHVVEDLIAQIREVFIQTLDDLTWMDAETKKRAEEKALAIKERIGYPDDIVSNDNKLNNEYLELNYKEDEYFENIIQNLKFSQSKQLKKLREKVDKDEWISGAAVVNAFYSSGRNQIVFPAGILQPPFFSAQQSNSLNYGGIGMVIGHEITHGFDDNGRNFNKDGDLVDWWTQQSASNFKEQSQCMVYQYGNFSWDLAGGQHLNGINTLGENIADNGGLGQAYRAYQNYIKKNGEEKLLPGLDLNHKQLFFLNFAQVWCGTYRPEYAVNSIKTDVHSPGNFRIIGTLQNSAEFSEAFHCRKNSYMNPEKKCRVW
row,Binder,% of control after 240 min (intact peptide by RP-HPLC after incubation with NEP)
1,B1,75%
2,B2,94%
3,B3,100%
4,B4,102%
5,B5,98%
6,B6,98%
7,B7,102%
8,B8,103%
9,B9,98%

# Target: human natriuretic peptide receptor B (NPR-B) (human) (UniProt P20594)
# Experiment: cell-based or functional assay
# Sequence of human natriuretic peptide receptor B (NPR-B) (human) (P20594 23-1047): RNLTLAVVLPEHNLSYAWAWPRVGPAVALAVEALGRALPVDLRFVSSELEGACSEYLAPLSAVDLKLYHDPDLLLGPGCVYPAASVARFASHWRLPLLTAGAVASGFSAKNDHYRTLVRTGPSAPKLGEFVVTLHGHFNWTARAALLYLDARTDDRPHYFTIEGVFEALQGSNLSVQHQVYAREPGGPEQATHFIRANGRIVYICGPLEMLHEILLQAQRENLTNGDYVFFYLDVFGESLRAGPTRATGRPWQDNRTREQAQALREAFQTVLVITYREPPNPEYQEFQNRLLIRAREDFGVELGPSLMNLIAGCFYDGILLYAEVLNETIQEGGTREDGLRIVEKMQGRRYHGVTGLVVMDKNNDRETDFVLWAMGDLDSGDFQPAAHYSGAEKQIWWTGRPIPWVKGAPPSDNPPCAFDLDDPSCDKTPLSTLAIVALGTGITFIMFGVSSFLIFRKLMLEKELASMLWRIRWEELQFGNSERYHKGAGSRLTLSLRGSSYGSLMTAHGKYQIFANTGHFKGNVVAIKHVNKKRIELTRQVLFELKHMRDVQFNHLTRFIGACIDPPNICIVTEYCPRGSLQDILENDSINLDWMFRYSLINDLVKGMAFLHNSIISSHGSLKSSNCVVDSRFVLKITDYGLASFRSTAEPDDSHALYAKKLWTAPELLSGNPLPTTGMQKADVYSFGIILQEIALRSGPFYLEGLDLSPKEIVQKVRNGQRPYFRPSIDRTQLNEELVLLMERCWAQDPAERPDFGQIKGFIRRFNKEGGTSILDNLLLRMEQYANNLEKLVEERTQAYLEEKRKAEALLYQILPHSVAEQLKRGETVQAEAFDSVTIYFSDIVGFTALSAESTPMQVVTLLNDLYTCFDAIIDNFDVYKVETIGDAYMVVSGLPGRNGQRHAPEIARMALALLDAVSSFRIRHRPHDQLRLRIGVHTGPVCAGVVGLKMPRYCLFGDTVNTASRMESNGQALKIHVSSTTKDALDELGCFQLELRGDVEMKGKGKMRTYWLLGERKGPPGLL
Binder,% loss in efficacy versus CDNP (NPR-B selective efficacy gain),Approximate fold gain in selectivity versus CDNP (NPR-B over NPR-A),Approximate fold selectivity NPR-B versus NPR-A,% Efficacy,"EC50 (nM), NPR-B whole cell cGMP assay",EC50 Ratio versus CNP22,Rescue Ratio Average
B10,69%,14.9 fold,43.5 fold,,,,
B11,27%,28.5 fold,83.2 fold,,,,
B1,,,,156%,2140 nM,146,545
B2,,,,136%,302 nM,20.5,18
B3,,,,96%,2360 nM,161,138
B4,,,,95%,888 nM,60.4,120
B5,,,,95%,1170 nM,79.3,87
B6,,,,95%,1010 nM,68.6,80
B7,,,,156%,2470 nM,168,90
B8,,,,97%,719 nM,48.9,52
B9,,,,88%,672 nM,45.7,63
